Molecular target: the molecule itself
Assay: cryo-EM structure

B1: AtGORK^623 (residues 1 to 623) (domain or fragment, Arabidopsis thaliana, UniProt Q94A76 1-623, looked up)
chain: MGRLRRRQEIIDHEEEESNDDVSSRRGKLSLAETFRWLDSSEHRRIETDGHNDYKYIIHPKNRWYKAWEMFILVWAIYSSLFTPMEFGFFRGLPERLFVLDIVGQIAFLVDIVLQFFVAYRDTQTYRTVYKPTRIAFRYLKSHFLMDFIGCFPWDLIYKASGKHELVRYLLWIRLFRVRKVVEFFQRLEKDTRINYLFTRILKLLFVEVYCTHTAACIFYYLATTLPPENEGYTWIGSLKLGDYSYENFREIDLWKRYTTALYFAIVTMATVGYGDIHAVNLREMIFVMIYVSFDMVLGAYLIGNITALIVKGSNTERFRDKMNDLISFMNRKKLGRDLRSQITGHVRLQYDSHYTDTVMLQDIPASIRAKIAQLLYLPYIKKVPLFKGCSTEFINQIVIRLHEEYFLPGEVITEQGNVVDHLYFVCEGLLEALVTKTDGSEESVTLLGPHTSFGDISIICNISQPFTVRVCELCHLLRLDKQSFSNILEIYFHDGRTILNNIMEEKESNDRIKKLESDIVIHIGKQEAELALKVNSAAFQGDFYQLKSLIRSGADPNKTDYDGRSPLHLAACRGYEDITLFLIQEGVDVNLKDKFGHTPLFEAVKAGQEGVIGLLVKEGASF
- stoichiometry N: 4

B2: full-length Arabidopsis GORK (AtGORK^FL, residues 1 to 820) (natural protein, Arabidopsis thaliana, UniProt Q94A76 1-820, looked up)
chain: MGRLRRRQEIIDHEEEESNDDVSSRRGKLSLAETFRWLDSSEHRRIETDGHNDYKYIIHPKNRWYKAWEMFILVWAIYSSLFTPMEFGFFRGLPERLFVLDIVGQIAFLVDIVLQFFVAYRDTQTYRTVYKPTRIAFRYLKSHFLMDFIGCFPWDLIYKASGKHELVRYLLWIRLFRVRKVVEFFQRLEKDTRINYLFTRILKLLFVEVYCTHTAACIFYYLATTLPPENEGYTWIGSLKLGDYSYENFREIDLWKRYTTALYFAIVTMATVGYGDIHAVNLREMIFVMIYVSFDMVLGAYLIGNITALIVKGSNTERFRDKMNDLISFMNRKKLGRDLRSQITGHVRLQYDSHYTDTVMLQDIPASIRAKIAQLLYLPYIKKVPLFKGCSTEFINQIVIRLHEEYFLPGEVITEQGNVVDHLYFVCEGLLEALVTKTDGSEESVTLLGPHTSFGDISIICNISQPFTVRVCELCHLLRLDKQSFSNILEIYFHDGRTILNNIMEEKESNDRIKKLESDIVIHIGKQEAELALKVNSAAFQGDFYQLKSLIRSGADPNKTDYDGRSPLHLAACRGYEDITLFLIQEGVDVNLKDKFGHTPLFEAVKAGQEGVIGLLVKEGASFNLEDSGNFLCTTVAKGDSDFLKRLLSSGMNPNSEDYDHRTPLHVAASEGLFLMAKMLVEAGASVISKDRWGNSPLDEARLCGNKKLIKLLEDVKNAQSSIYPSSLRELQEERIERRKCTVFPFHPQEAKEERSRKHGVVVWIPSNLEKLIVTAAKELGLSDGASFVLLSEDQGRITDIDMISDGHKLYMISDTTDQT
- stoichiometry N: 4

B3: AtGORK^510 (residues 1 to 510) (domain or fragment, Arabidopsis thaliana, UniProt Q94A76 1-510, looked up)
chain: MGRLRRRQEIIDHEEEESNDDVSSRRGKLSLAETFRWLDSSEHRRIETDGHNDYKYIIHPKNRWYKAWEMFILVWAIYSSLFTPMEFGFFRGLPERLFVLDIVGQIAFLVDIVLQFFVAYRDTQTYRTVYKPTRIAFRYLKSHFLMDFIGCFPWDLIYKASGKHELVRYLLWIRLFRVRKVVEFFQRLEKDTRINYLFTRILKLLFVEVYCTHTAACIFYYLATTLPPENEGYTWIGSLKLGDYSYENFREIDLWKRYTTALYFAIVTMATVGYGDIHAVNLREMIFVMIYVSFDMVLGAYLIGNITALIVKGSNTERFRDKMNDLISFMNRKKLGRDLRSQITGHVRLQYDSHYTDTVMLQDIPASIRAKIAQLLYLPYIKKVPLFKGCSTEFINQIVIRLHEEYFLPGEVITEQGNVVDHLYFVCEGLLEALVTKTDGSEESVTLLGPHTSFGDISIICNISQPFTVRVCELCHLLRLDKQSFSNILEIYFHDGRTILNNIMEEKESN
- stoichiometry N: 4

Reference: paper doi:10.1101/2024.12.17.628833 (bioRxiv, 2024)
